From patent US20150344570A1 (published 2015)

B1: GpH7-A5/GpH7-B3 variant N325_09D/GpL16-k0 (antibody, human IgG1, kappa)
heavy 1: not shown
heavy 2: not shown
light: DIVMTQSPLSLPVTPGEPASISCQASESLVHSNRNTYLHWYLQKPGQSPQLLIYKVSNRFSGVPDRFSGSGSGTDFTLKISRVEAEDVGVYYCSQNTHVPPTFGQGTKVEIERTVAAPSVFIFPPSDEQLKSGTASVVCLLNNFYPREAKVQWKVDNALQSGNSQESVTEQDSKDSTYSLSSTLTLSKADYEKHKVYACEVTHQGLSSPVTKSFNRGEC
notes: Heterodimerized anti-glypican-3 IgG1; alteration in the GpH7-B3 chain only; also called He Ab
B2: GpH7-A5/GpH7-B3 variant P331_04F/GpL16-k0 (antibody, human IgG1, kappa)
heavy 1: not shown
heavy 2: not shown
light: DIVMTQSPLSLPVTPGEPASISCQASESLVHSNRNTYLHWYLQKPGQSPQLLIYKVSNRFSGVPDRFSGSGSGTDFTLKISRVEAEDVGVYYCSQNTHVPPTFGQGTKVEIERTVAAPSVFIFPPSDEQLKSGTASVVCLLNNFYPREAKVQWKVDNALQSGNSQESVTEQDSKDSTYSLSSTLTLSKADYEKHKVYACEVTHQGLSSPVTKSFNRGEC
notes: as for B1
B3: GpH7-A5/GpH7-B3 variant S239_07I/GpL16-k0 (antibody, human IgG1, kappa)
heavy 1: not shown
heavy 2: not shown
light: DIVMTQSPLSLPVTPGEPASISCQASESLVHSNRNTYLHWYLQKPGQSPQLLIYKVSNRFSGVPDRFSGSGSGTDFTLKISRVEAEDVGVYYCSQNTHVPPTFGQGTKVEIERTVAAPSVFIFPPSDEQLKSGTASVVCLLNNFYPREAKVQWKVDNALQSGNSQESVTEQDSKDSTYSLSSTLTLSKADYEKHKVYACEVTHQGLSSPVTKSFNRGEC
notes: as for B1
B4: GpH7-A5/GpH7-B3 variant S239_03V/GpL16-k0 (antibody, human IgG1, kappa)
heavy 1: not shown
heavy 2: not shown
light: DIVMTQSPLSLPVTPGEPASISCQASESLVHSNRNTYLHWYLQKPGQSPQLLIYKVSNRFSGVPDRFSGSGSGTDFTLKISRVEAEDVGVYYCSQNTHVPPTFGQGTKVEIERTVAAPSVFIFPPSDEQLKSGTASVVCLLNNFYPREAKVQWKVDNALQSGNSQESVTEQDSKDSTYSLSSTLTLSKADYEKHKVYACEVTHQGLSSPVTKSFNRGEC
notes: as for B1
B5: GpH7-A5/GpH7-B3 variant S239_05P/GpL16-k0 (antibody, human IgG1, kappa)
heavy 1: not shown
heavy 2: not shown
light: DIVMTQSPLSLPVTPGEPASISCQASESLVHSNRNTYLHWYLQKPGQSPQLLIYKVSNRFSGVPDRFSGSGSGTDFTLKISRVEAEDVGVYYCSQNTHVPPTFGQGTKVEIERTVAAPSVFIFPPSDEQLKSGTASVVCLLNNFYPREAKVQWKVDNALQSGNSQESVTEQDSKDSTYSLSSTLTLSKADYEKHKVYACEVTHQGLSSPVTKSFNRGEC
notes: as for B1
B6: GpH7-A5/GpH7-B3 variant P331_10E/GpL16-k0 (antibody, human IgG1, kappa)
heavy 1: not shown
heavy 2: not shown
light: DIVMTQSPLSLPVTPGEPASISCQASESLVHSNRNTYLHWYLQKPGQSPQLLIYKVSNRFSGVPDRFSGSGSGTDFTLKISRVEAEDVGVYYCSQNTHVPPTFGQGTKVEIERTVAAPSVFIFPPSDEQLKSGTASVVCLLNNFYPREAKVQWKVDNALQSGNSQESVTEQDSKDSTYSLSSTLTLSKADYEKHKVYACEVTHQGLSSPVTKSFNRGEC
notes: as for B1
B7: GpH7-A5/GpH7-B3 variant S239_06M/GpL16-k0 (antibody, human IgG1, kappa)
heavy 1: not shown
heavy 2: not shown
light: DIVMTQSPLSLPVTPGEPASISCQASESLVHSNRNTYLHWYLQKPGQSPQLLIYKVSNRFSGVPDRFSGSGSGTDFTLKISRVEAEDVGVYYCSQNTHVPPTFGQGTKVEIERTVAAPSVFIFPPSDEQLKSGTASVVCLLNNFYPREAKVQWKVDNALQSGNSQESVTEQDSKDSTYSLSSTLTLSKADYEKHKVYACEVTHQGLSSPVTKSFNRGEC
notes: as for B1
B8: GpH7-A5/GpH7-B3 variant P331_15Y/GpL16-k0 (antibody, human IgG1, kappa)
heavy 1: not shown
heavy 2: not shown
light: DIVMTQSPLSLPVTPGEPASISCQASESLVHSNRNTYLHWYLQKPGQSPQLLIYKVSNRFSGVPDRFSGSGSGTDFTLKISRVEAEDVGVYYCSQNTHVPPTFGQGTKVEIERTVAAPSVFIFPPSDEQLKSGTASVVCLLNNFYPREAKVQWKVDNALQSGNSQESVTEQDSKDSTYSLSSTLTLSKADYEKHKVYACEVTHQGLSSPVTKSFNRGEC
notes: as for B1
B9: GpH7-A5/GpH7-B3 variant P331_03V/GpL16-k0 (antibody, human IgG1, kappa)
heavy 1: not shown
heavy 2: not shown
light: DIVMTQSPLSLPVTPGEPASISCQASESLVHSNRNTYLHWYLQKPGQSPQLLIYKVSNRFSGVPDRFSGSGSGTDFTLKISRVEAEDVGVYYCSQNTHVPPTFGQGTKVEIERTVAAPSVFIFPPSDEQLKSGTASVVCLLNNFYPREAKVQWKVDNALQSGNSQESVTEQDSKDSTYSLSSTLTLSKADYEKHKVYACEVTHQGLSSPVTKSFNRGEC
notes: as for B1
B10: GpH7-A5/GpH7-B3 variant P238_19Q/GpL16-k0 (antibody, human IgG1, kappa)
heavy 1: not shown
heavy 2: not shown
light: DIVMTQSPLSLPVTPGEPASISCQASESLVHSNRNTYLHWYLQKPGQSPQLLIYKVSNRFSGVPDRFSGSGSGTDFTLKISRVEAEDVGVYYCSQNTHVPPTFGQGTKVEIERTVAAPSVFIFPPSDEQLKSGTASVVCLLNNFYPREAKVQWKVDNALQSGNSQESVTEQDSKDSTYSLSSTLTLSKADYEKHKVYACEVTHQGLSSPVTKSFNRGEC
notes: as for B1
B11: GpH7-A5/GpH7-B3 variant S267_07I/GpL16-k0 (antibody, human IgG1, kappa)
heavy 1: not shown
heavy 2: not shown
light: DIVMTQSPLSLPVTPGEPASISCQASESLVHSNRNTYLHWYLQKPGQSPQLLIYKVSNRFSGVPDRFSGSGSGTDFTLKISRVEAEDVGVYYCSQNTHVPPTFGQGTKVEIERTVAAPSVFIFPPSDEQLKSGTASVVCLLNNFYPREAKVQWKVDNALQSGNSQESVTEQDSKDSTYSLSSTLTLSKADYEKHKVYACEVTHQGLSSPVTKSFNRGEC
notes: as for B1
B12: GpH7-A5/GpH7-B3 variant N325_20W/GpL16-k0 (antibody, human IgG1, kappa)
heavy 1: not shown
heavy 2: not shown
light: DIVMTQSPLSLPVTPGEPASISCQASESLVHSNRNTYLHWYLQKPGQSPQLLIYKVSNRFSGVPDRFSGSGSGTDFTLKISRVEAEDVGVYYCSQNTHVPPTFGQGTKVEIERTVAAPSVFIFPPSDEQLKSGTASVVCLLNNFYPREAKVQWKVDNALQSGNSQESVTEQDSKDSTYSLSSTLTLSKADYEKHKVYACEVTHQGLSSPVTKSFNRGEC
notes: as for B1
B13: GpH7-A5/GpH7-B3 variant P331_07I/GpL16-k0 (antibody, human IgG1, kappa)
heavy 1: not shown
heavy 2: not shown
light: DIVMTQSPLSLPVTPGEPASISCQASESLVHSNRNTYLHWYLQKPGQSPQLLIYKVSNRFSGVPDRFSGSGSGTDFTLKISRVEAEDVGVYYCSQNTHVPPTFGQGTKVEIERTVAAPSVFIFPPSDEQLKSGTASVVCLLNNFYPREAKVQWKVDNALQSGNSQESVTEQDSKDSTYSLSSTLTLSKADYEKHKVYACEVTHQGLSSPVTKSFNRGEC
notes: as for B1
B14: GpH7-A5/GpH7-B3 variant P331_06M/GpL16-k0 (antibody, human IgG1, kappa)
heavy 1: not shown
heavy 2: not shown
light: DIVMTQSPLSLPVTPGEPASISCQASESLVHSNRNTYLHWYLQKPGQSPQLLIYKVSNRFSGVPDRFSGSGSGTDFTLKISRVEAEDVGVYYCSQNTHVPPTFGQGTKVEIERTVAAPSVFIFPPSDEQLKSGTASVVCLLNNFYPREAKVQWKVDNALQSGNSQESVTEQDSKDSTYSLSSTLTLSKADYEKHKVYACEVTHQGLSSPVTKSFNRGEC
notes: as for B1
B15: GpH7-A5/GpH7-B3 variant N325_13S/GpL16-k0 (antibody, human IgG1, kappa)
heavy 1: not shown
heavy 2: not shown
light: DIVMTQSPLSLPVTPGEPASISCQASESLVHSNRNTYLHWYLQKPGQSPQLLIYKVSNRFSGVPDRFSGSGSGTDFTLKISRVEAEDVGVYYCSQNTHVPPTFGQGTKVEIERTVAAPSVFIFPPSDEQLKSGTASVVCLLNNFYPREAKVQWKVDNALQSGNSQESVTEQDSKDSTYSLSSTLTLSKADYEKHKVYACEVTHQGLSSPVTKSFNRGEC
notes: as for B1
B16: GpH7-A5/GpH7-B3 variant P238_16H/GpL16-k0 (antibody, human IgG1, kappa)
heavy 1: not shown
heavy 2: not shown
light: DIVMTQSPLSLPVTPGEPASISCQASESLVHSNRNTYLHWYLQKPGQSPQLLIYKVSNRFSGVPDRFSGSGSGTDFTLKISRVEAEDVGVYYCSQNTHVPPTFGQGTKVEIERTVAAPSVFIFPPSDEQLKSGTASVVCLLNNFYPREAKVQWKVDNALQSGNSQESVTEQDSKDSTYSLSSTLTLSKADYEKHKVYACEVTHQGLSSPVTKSFNRGEC
notes: as for B1
B17: GpH7-A5/GpH7-B3 variant P238_20W/GpL16-k0 (antibody, human IgG1, kappa)
heavy 1: not shown
heavy 2: not shown
light: DIVMTQSPLSLPVTPGEPASISCQASESLVHSNRNTYLHWYLQKPGQSPQLLIYKVSNRFSGVPDRFSGSGSGTDFTLKISRVEAEDVGVYYCSQNTHVPPTFGQGTKVEIERTVAAPSVFIFPPSDEQLKSGTASVVCLLNNFYPREAKVQWKVDNALQSGNSQESVTEQDSKDSTYSLSSTLTLSKADYEKHKVYACEVTHQGLSSPVTKSFNRGEC
notes: as for B1

Legend:
[1] = biological target: T1, FcγRIIb (human, UniProt P31994 43-217); assay: SPR (Biacore), antibody captured, FcγR as analyte; relative to GpH7-A5/GpH7-B3/GpL16-k0 = 100
T1 construct: extracellular domain; Soluble extracellular domain with C-terminal His tag, used as analyte in Biacore; also called FcgRIIb; 2b; not shown: His tag attached to the C terminus
T1 sequence (looked up): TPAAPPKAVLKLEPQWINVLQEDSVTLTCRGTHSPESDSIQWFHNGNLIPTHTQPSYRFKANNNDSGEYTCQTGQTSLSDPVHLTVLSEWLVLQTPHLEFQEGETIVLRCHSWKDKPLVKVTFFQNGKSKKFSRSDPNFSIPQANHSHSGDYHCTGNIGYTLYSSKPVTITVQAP
Description: (§1) The heterodimerized antibodies He Abs in which one of the H chains was introduced with an alteration were assayed for their binding activities to each activating FcγR and inhibitory FcγR according to the method described in Example 4. […] The activating FcγRs in FIGS. 26, 27, 28, and 29 are FcγRIa, FcγRIIa (R), FcγRIIa (H), and FcγRIIIa, respectively.
(§2) Analysis of interaction between objective antibody and the FcγR was carried out using Biacore T100 (GE Healthcare). HBS-EP+ (GE Healthcare) was used as the running buffer, and the measurement temperature was set to 25° C. Chips produced by immobilizing the antigen peptide by the amine coupling method to a Series S Sencor Chip CM5 (GE Healthcare), or alternatively, chips produced by allowing preliminarily biotinylated antigen peptides to interact with and immobilize onto a Series S Sensor Chip SA (certified) (GE Healthcare) were used. Antibodies of interest were captured onto an antigen peptide-immobilized chip, and allowed to interact to each FcγR diluted with running buffer. To regenerate and repeatedly use the chip, the antibodies captured on the chip were washed off by reacting 10 mM glycine-HCl, pH 1.5.

[2] = biological target: T2, FcγRIa (human, UniProt P12314 16-292); assay: as above
T2 construct: extracellular domain; Soluble extracellular domain with C-terminal His tag, used as analyte in Biacore; also called FcgRI; 1a; not shown: His tag attached to the C terminus
T2 sequence (P12314 16-292): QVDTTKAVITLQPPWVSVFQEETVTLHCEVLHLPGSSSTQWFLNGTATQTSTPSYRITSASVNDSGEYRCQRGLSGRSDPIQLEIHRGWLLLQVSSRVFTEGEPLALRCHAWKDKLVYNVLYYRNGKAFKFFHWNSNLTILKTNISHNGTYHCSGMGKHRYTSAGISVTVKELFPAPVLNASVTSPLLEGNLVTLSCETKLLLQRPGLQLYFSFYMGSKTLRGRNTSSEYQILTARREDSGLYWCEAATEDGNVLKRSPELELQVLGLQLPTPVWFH
Description: as §1, §2

Binder | He/Con_2b [1] | He/Con_1a [2]
B1 | 124 % of control (=100) | 99.9 % of control (=100)
B2 | 110 % of control (=100) | 95.5 % of control (=100)
B3 | 107 % of control (=100) | 97.8 % of control (=100)
B4 | 108 % of control (=100) | 95.9 % of control (=100)
B5 | 102 % of control (=100) | 85.3 % of control (=100)
B6 | 116 % of control (=100) | 95 % of control (=100)
B7 | 101 % of control (=100) | 99 % of control (=100)
B8 | 114 % of control (=100) | 96 % of control (=100)
B9 | 119 % of control (=100) | 92 % of control (=100)
B10 | 110 % of control (=100) | 97.6 % of control (=100)
B11 | 192 % of control (=100) | 100 % of control (=100)
B12 | 169 % of control (=100) | 93.8 % of control (=100)
B13 | 114 % of control (=100) | 93.4 % of control (=100)
B14 | 102 % of control (=100) | 93.6 % of control (=100)
B15 | 177 % of control (=100) | 96.8 % of control (=100)
B16 | 115 % of control (=100) | 96 % of control (=100)
B17 | 123 % of control (=100) | 99.9 % of control (=100)
